Data taken from US8889408B2, “Factor taking part in transcription control” (Sony Corporation, priority 2002, dated 2014).

Assays:
[1] = test system: glucocorticoid receptor (GR); test: GR reporter CAT analysis in GR positive Hela cells; format: cell-based; details: co-expression of HDART; Hela cells; 10^−8 M dexamethasone
Experimental: Furthermore, the action of HDART on the transcription regulation by glucocorticoid receptor (GR) was analyzed by use of GR reporter plasmid in GR positive Hela cells. The transcription activity of a glucocorticoid response promoter was carried out in the same manner as in the experiment for the retinoic acid receptor except for the use of Hela cells and 10^−8 M of dexamethasone. The results of the measurement are shown in the same manner as shown above.
Next, the influence of the overexpression of N4TPR on the transcription from RAR or a glucocorticoid responsive promoter was checked. It will be noted that this test was made in the same manner as in the reporter analysis set out in Example 4, but using GFP-N4TPR expression vector (0, 0.3 and 0.5 μg).

MM-1-19-P cells = test: ATRA-induced differentiation of MM-1-19-P rhabdomyosarcoma cells; format: cell-based, human
Source text: It is known that ATRA (all-trans retinoic acid) is an important inducer for tumor cell differentiation (20-22). The human rhabdomyosarcoma cell line MM-1-19-P is constituted mainly of small polygonal cells, which when provided with retinoic acid, ultimately differentiate into myotubular cytomegalic cells. In order to clarify the physiological role of HDART in the reaction ascribed to nuclear hormone receptors, the influence of the expression with HDART on the differentiation of MM-1-19-P caused by ATRA was analyzed.
MM-1-19-P cells were plated in a […] Petri dish, followed by co-transfection of the cells with 0.4 μg of pGFP vector and 2 μg of pcDNA3 (vacant vector) or pcDMA3-HDART (HDART expression vector). 24 hours after the transfection, the medium was changed with an ATRA-containing (2 μM) or ATRA-free fresh one. […] All experiments were repeated four times, and the number of cells assessed as positive for GFP was counted. It will be noted that in FIG. 12, the standard microphotographs of green fluorescence of GFP are shown in panels of FIGS. 12A, 12B, 12C and 12D, and the phase differential microphotographs are shown in panels of FIGS. 12E and 12F, respectively. In the figure, 12A indicates ATRA non-treated, vacant vector-introduced cells, 12B indicates ATRA treated, vacant vector-introduced cells, 12C indicates ATRA-non-treated, HDART expression vector-introduced cells, 12D indicates ATRA-treated, HDART expression vector-introduced cells, 12E indicates cells under the same conditions as in 12C above, and 12F indicates cells under the same conditions as in 12D above. In addition, the black arrow in the panel of FIG. 12F indicates undifferentiated GFP positive cells, and white arrow indicates differentiated cells.

B1: HDART: HDAC associated repressor TPR protein, 855 amino acids, SEQ ID NO: 2; transcription repressing factor, used as fusions or expressed from vector (protein, listed as Homo sapiens)
chain: MVVMARLSRPERPDLVFEEEDLPYEEEIMRNQFSVKCWLRYIEFKQGAPKPRLNQLYERALKLLPCSYKLWYRYLKARRAQVKHRCVTDPAYEDVNNCHERAFVFMHKMPRLWLDYCQFLMDQGRVTHTRRTFDRALRALPITQHSRIWPLYLRFLRSHPLPETAVRGYRRFLKLSPESAEEYIEYLKSSDRLDEAAQRLATVVNDERFVSKAGKSNYQLWHELCDLISQNPDKVQSLNVDAIIRGGLTRFTDQLGKLWCSLADYYIRSGHFEKARDVYEEAIRTVMTVRDFTQVFDSYAQFEESMIAAKMETASELGREEEDDVDLELRLARFEQLISRRPLLLNSVLLRQNPHHVHEWHKRVALHQGRPREIINTYTEAVQTVDPFKATGKPHTLWVAFAKFYEDNGQLDDARVILEKATKVNFKQVDDLASVWCQCGELELRHENYDEALRLLRKATALPARRAEYFDGSEPVQNRVYKSLKVWSMLADLEESLGTFQSTKAVYDRILDLRIATPQIVINYAMFLEEHKYFEESFKAYERGISLFKWPNVSDIWSTYLTKFIARYGGRKLERARDLFEQALDGCPPKYAKTLYLLYAQLEEEWGLARHAMAVYERATRAVEPAQQYDMFNIYIKRAAEIYGVTHTRGIYQKAIEVLSDEHAREMCLRFADMECKLGEIDRARAIYSFCSQICDPRTTGAFWQTWKDFEVRHGNEDTIKEMLRIRRSVQATYNTQVNFMASQMLKVSGSATGTVSDLAPGQSGMDDMKLLEQRAEQLAAEAERDQPLRAQSKILFVRSDASREELAELAQQVNPEEIQLGEDEDEDEMDLEPNEVRLEQQSVPAAVFGSLKED
Q: B1 was tested. Which “activation of the reporter gene responding to glucocorticoid” value [1] did it give?
A: Its value is “inhibited”.

Q: What about the “change in phenotype on ATRA treatment” value (MM-1-19-P cells; HDART expression vector-introduced GFP positive cells, ATRA 2 μM, 48 hours) of the same molecule?
A: The value was “little change in the phenotype”.

Q: What about the “numbers of GFP positive cells, ATRA treated versus non-treated group” value (MM-1-19-P cells; HDART expression vector-introduced cells) of the same molecule?
A: The value was “same”.
